Measurements published in patent publication US20180148484A1 (Pieris, published 2018).
Numbering of substitutions follows the chain as printed. One block for each binder: values may come before it.

Experiments:
[1] = biological target: T1, human CD137 expressed on cells (human, UniProt Q07011 24-255); assay: FACS on CHO cells stably transfected with human CD137
T1 construct: whole, on cells; also called CHO-huCD137; CHO::hCD137
Method: (§1) To perform the experiment, CD137-positive and negative Flp-In CHO cells were incubated with lipocalin muteins, and bound mutein was labeled using anti-lipocalin primary antibodies and fluorescently labeled secondary antibodies, which were detected by FACS analysis as described in the following.
(§2) 1×10⁵ cells per well were pre-incubated for 1 h in ice-cold PBS containing 5% fetal calf serum (PBS-FCS). Subsequently, a dilution series of lipocalin muteins and negative controls typically ranging from 10 μM to 1 nM was added to the cells and incubation was continued on ice for 1 h. Cells were washed twice in ice-cold PBS using centrifugation at 300 g and then incubated with a rabbit anti-lipocalin primary antibody (Pieris, (polyclonal rabbit anti-hNGAL and rabbit anti-hTLC; Pieris) for 30 min on ice. Cells were washed twice in ice-cold PBS, re-suspended in PBS-FCS and incubated 30 min on ice with a secondary anti-rabbit antibody labelled with the fluorescent dye Alexa488 (Life Technologies). Cells were subsequently washed and analyzed using a Guava easyCyte HT Flow cytometer. Typically, a gate was set to exclude non-viable cells and 5.000 events were recorded. Numerical results are expressed as the geometric mean of the fluorescence intensity.

[2] = biological target: T2, human CD137-Fc fusion protein (Fc-fusion of the full extracellular domain of human CD137, R&D Systems 838-4B) (human, UniProt Q07011 24-186); assay: SPR, huCD137-Fc captured via anti-human IgG-Fc antibody
T2 construct: extracellular domain; Bought protein; also called huCD137-Fc; KD huCD137; not shown: Fc of human IgG (captured by an anti-human IgG-Fc antibody)
Text: FIG. 1: provides typical measurements of on-rate and off-rate by surface plasmon resonance (SPR) for the interaction of various representative lipocalin muteins (SEQ ID NOs indicated in the graph) with human CD137 (Fc-fusion) as the target. The targets were immobilized via an anti-human IgG-Fc antibody, which was in turn immobilized on a sensor chip using standard amine coupling chemistry. The lipocalin muteins were employed as the soluble analyte which was flowed at different concentrations across the chip surface. […] The dissociation constants resulting from a fit (1:1 binding model) of the depicted data for all SEQ ID NOs are provided in Table 1.
Prior to the protein measurements three regeneration cycles were performed for conditioning purposes. Regeneration of the derivatized chip surface was achieved by applying 3M MgCl₂ for 60 s followed by 10 mM glycine, pH 1.7 for 180 s. Anti-human IgG-Fc antibody was utilized to immobilize huCD137-Fc in a subsequent step and taken from the human antibody capture kit (GE Healthcare, BR-1008-39). […]
HuCD137-Fc at a concentration of 0.5 μg/mL was captured on this surface for 180 s at a flow rate of 10 μL/min in HBS-EP+ buffer. […] Data were evaluated with Biacore T200 Evaluation software (V 2.0). […]

[3] = biological target: T2, human CD137-Fc fusion protein …; assay: SPR (Biacore T200, 37 C), huCD137-Fc captured via anti-human IgG-Fc antibody, mutein as analyte, 1:1 model
Method: Prior to the protein measurements three regeneration cycles were performed for conditioning purposes. Regeneration of the derivatized chip surface was achieved by applying 3M MgCl₂ for 60 s followed by 10 mM glycine, pH 1.7 for 180 s. Anti-human IgG-Fc antibody was utilized to immobilize huCD137-Fc in a subsequent step and taken from the human antibody capture kit (GE Healthcare, BR-1008-39). It was immobilized on a CM5 sensor chip using standard amine coupling chemistry and the immobilization buffer included in the kit (10 mM sodium acetate pH 5.0), resulting in a ligand density of about 13000 resonance units (RU). The reference channel was treated accordingly.
HuCD137-Fc at a concentration of 0.5 μg/mL was captured on this surface for 180 s at a flow rate of 10 μL/min in HBS-EP+ buffer. No target protein was applied to the reference channel. Subsequently, the lipocalin muteins were applied in an appropriate dilution series in HBS-EP+ buffer at a flow rate of 30 μL/min. Regeneration of the derivatized chip surface was achieved as described above. Data were evaluated with Biacore T200 Evaluation software (V 2.0). Double referencing was used and the 1:1 Binding model was used to fit the raw data.

[4] = biological target: T1, human CD137 expressed on cells; assay: FACS on CHO cells stably transfected with human CD137; anti-lipocalin primary and Alexa488 secondary antibody
Method: as §1, §2

[5] = biological target: T1, human CD137 expressed on cells; assay: cell-based or functional assay

T1 sequence (Q07011 24-255): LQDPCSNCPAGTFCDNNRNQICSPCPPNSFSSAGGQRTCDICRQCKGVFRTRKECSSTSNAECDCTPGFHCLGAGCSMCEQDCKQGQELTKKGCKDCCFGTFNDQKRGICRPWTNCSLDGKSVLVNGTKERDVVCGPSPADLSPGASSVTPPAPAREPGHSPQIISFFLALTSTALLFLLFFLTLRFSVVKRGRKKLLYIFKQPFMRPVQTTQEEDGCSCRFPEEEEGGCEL

B1: negative control, wild-type like lipocalin mutein SEQ ID NO: 4 (other)
chain: QDSTSDLIPAPPLSKVPLQQNFQDNQFHGKWYVVGLAGNAILREDKDPQKMYATIYELKEDKSYNVTSVLFRKKKCDYWIRTFVPGSQPGEFTLGNIKSYPGLTSYLVRVVSTNYNQHAMVFFKKVSQNREYFKITLYGRTKELTSELKENFIRFSKSLGLPENHIVFPVPIDQCIDG
notes: captured by anti-hNGAL antibody in the T-cell assays
binding result [1]: no binding | binding result [2]: no binding

B2: lipocalin mutein of SEQ ID NO: 18 (designed binder, not shown: small tags and cut ends)
chain: QDSTSDLIPAPPLSKVPLQQNFQDNQFHGKWYVVGQAGNIRLREDKDPHKMMATIYELKEDKSYDVTGVTFDDKKCTYAISTFVPGSQPGEFTLGKIKSFPGHTSSLVRVVSTNYNQHAMVFFKFVFQNREEFYITLYGRTKELTSELKENFIRFSKSLGLPENHIVFPVPIDQCIDG
notes: expressed in E. coli with a C-terminal Strep-tag II; also called hNGAL mutein
Kd [3]: 77 nM | EC50 [4]: 13.7 nM

B5: lipocalin mutein of SEQ ID NO: 13 (designed binder, not shown: small tags and cut ends)
chain: B2 chain with H49I, G68M, T70K, T77M, A79D, S81W
notes: as for B2
IFN-γ production, coated mutein, anti-CD3 and anti-CD28 stimulation [5]: ≤ 2.5 fold over negative control | IFN-γ production, coated mutein, anti-CD3 stimulation only [5]: ~2.5 fold over negative control | IL-2 production, coated mutein, anti-CD3 and anti-CD28 stimulation [5]: ~6 fold over negative control | maximum response at 6.25 µg/mL coating concentration (readout not named, probably IL-2), anti-CD3 stimulation only [5]: 15 fold over negative control | proliferation rate (BrdU), coated mutein, anti-CD3 and anti-CD28 stimulation [5]: ≤ 14 fold over negative control | proliferation rate (BrdU), coated mutein, anti-CD3 stimulation only [5]: ≤ 4 fold over negative control | Kd [3]: 2 nM | EC50 [4]: 4.3 nM

B8: lipocalin mutein of SEQ ID NO: 17 (designed binder, not shown: small tags and cut ends)
chain: B2 chain with R41K, H49V, T77R, A79D, L94F
notes: as for B2
Kd [3]: 50 nM | EC50 [4]: 17.9 nM

B9: lipocalin mutein of SEQ ID NO: 15 (designed binder, not shown: small tags and cut ends)
chain: B2 chain with R41K, H49N, G68A, T70A, A79D, S81W
notes: as for B2
Kd [3]: 23 nM | EC50 [4]: 7.8 nM

B10: lipocalin mutein of SEQ ID NO: 16 (designed binder, not shown: small tags and cut ends)
chain: QDSTSDLIPAPPLSKVPLQQNFQDNQFHGKWYVVGQAGNIKLREDSKMMATIYELKEDKSYDVTGVSFDDKKCTYAIMTFVPGSQPGEFTLGKIKSFPGHTSSLVRVVSTNYNQHAMVFFKFVFQNREEFYITLYGRTKELTSELKENFIRFSKSLGLPENHIVFPVPIDQCIDG
notes: as for B2
Kd [3]: 30 nM

The remaining binders from weak to strong by Kd [3], led by results:

Kd [3]: 138 nM | EC50 [4]: 18 nM
B6: lipocalin mutein of SEQ ID NO: 20 (designed binder, not shown: small tags and cut ends)
chain: B2 chain with H49S, G68A, T77N
notes: as for B2

Kd [3]: 98 nM
B4: lipocalin mutein of SEQ ID NO: 19 (designed binder, not shown: small tags and cut ends)
chain: B2 chain with R41K, H49N, F83L, L94F
notes: as for B2

Kd [3]: 36 nM
B7: lipocalin mutein of SEQ ID NO: 12 (designed binder, not shown: small tags and cut ends)
chain: B2 chain with R41K, H49N, D65N
notes: as for B2

Kd [3]: 9 nM | EC50 [4]: 4.5 nM
B3: lipocalin mutein of SEQ ID NO: 14 (designed binder, not shown: small tags and cut ends)
chain: B2 chain with H49N, G68A, T70A, A79D, S81W
notes: as for B2
